Assay results: patent US20190117763A1

Biological target: wildtype PV1 VLPs (74S empty capsids, N-antigenic form) (poliovirus serotype 1 (PV1), Mahoney strain) (UniProt P03300)
UniProt P03300, sequence (P03300 2-341 limits assumed, chain 1 of 3): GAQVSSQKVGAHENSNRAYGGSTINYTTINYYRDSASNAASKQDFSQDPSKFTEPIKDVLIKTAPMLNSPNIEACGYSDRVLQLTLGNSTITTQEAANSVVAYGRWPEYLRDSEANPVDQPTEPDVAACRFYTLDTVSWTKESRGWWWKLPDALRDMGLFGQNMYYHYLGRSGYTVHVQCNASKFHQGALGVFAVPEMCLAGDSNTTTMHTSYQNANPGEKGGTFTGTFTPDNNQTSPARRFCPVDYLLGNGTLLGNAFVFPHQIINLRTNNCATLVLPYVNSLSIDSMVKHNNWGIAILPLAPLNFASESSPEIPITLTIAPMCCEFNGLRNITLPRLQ
UniProt P03300, sequence (P03300 342-579 limits assumed, chain 2 of 3): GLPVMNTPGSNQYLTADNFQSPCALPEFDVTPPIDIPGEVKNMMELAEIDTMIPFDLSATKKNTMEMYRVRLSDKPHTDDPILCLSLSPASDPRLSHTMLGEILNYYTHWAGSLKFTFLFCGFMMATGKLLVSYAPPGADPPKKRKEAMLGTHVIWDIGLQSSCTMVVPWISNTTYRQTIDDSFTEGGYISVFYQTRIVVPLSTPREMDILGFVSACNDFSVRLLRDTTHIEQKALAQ
UniProt P03300, sequence (P03300 580-881 limits assumed, chain 3 of 3): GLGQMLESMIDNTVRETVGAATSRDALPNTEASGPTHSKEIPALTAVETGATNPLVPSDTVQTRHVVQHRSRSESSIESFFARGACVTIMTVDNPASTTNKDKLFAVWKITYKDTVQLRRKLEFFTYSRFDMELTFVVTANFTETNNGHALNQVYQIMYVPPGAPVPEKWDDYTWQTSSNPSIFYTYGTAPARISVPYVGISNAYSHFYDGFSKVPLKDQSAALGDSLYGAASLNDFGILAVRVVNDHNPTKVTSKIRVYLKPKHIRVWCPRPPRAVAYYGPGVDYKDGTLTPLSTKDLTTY

Substance: Novus 14D2(7C5) monoclonal antibody
- N-antigenic units/µl (N-antigenic units/µl): 6.15
